# How the values were obtained:
# [1] = target: recombinant soluble human CD4 (human) (UniProt P01730); experiment: SPR sensor chip; sCD4 amine-coupled, antibody flowed over
# [2] = target: recombinant soluble human CD4 (human) (UniProt P01730); experiment: BIAcore; rCD4 coupled to chip, mAb flowed (avidity)
substance,measurement,setting,value
mouse anti-human CD4 monoclonal antibody Leu3a (Becton Dickinson),Ka,[1],3.7e+10 M⁻¹
same,koff,[1],4.2e-05 s⁻¹
same,kon,[1],150000 M⁻¹ s⁻¹
same,Ka,[2],3.7e+10 M⁻¹
same,koff,[2],4.2e-06 s⁻¹
same,kon,[2],150000 M⁻¹ s⁻¹

# Source: patent US20130039850A1
